Measured values as given in PMC10560287.

Biological target: GmILPA1-cYFP (soybean (Glycine max))
Assay: split reporter (BiFC, NanoBiT); BiFC with nYFP and cYFP fusions co-infiltrated into N. benthamiana leaves together with P19; confocal microscopy; leaves in white light or exposed to 1 h of UV-B (21 μmol m^-2 s^-1)

GmILPA1-cYFP (soybean (Glycine max)), sequence (main, as listed by the source): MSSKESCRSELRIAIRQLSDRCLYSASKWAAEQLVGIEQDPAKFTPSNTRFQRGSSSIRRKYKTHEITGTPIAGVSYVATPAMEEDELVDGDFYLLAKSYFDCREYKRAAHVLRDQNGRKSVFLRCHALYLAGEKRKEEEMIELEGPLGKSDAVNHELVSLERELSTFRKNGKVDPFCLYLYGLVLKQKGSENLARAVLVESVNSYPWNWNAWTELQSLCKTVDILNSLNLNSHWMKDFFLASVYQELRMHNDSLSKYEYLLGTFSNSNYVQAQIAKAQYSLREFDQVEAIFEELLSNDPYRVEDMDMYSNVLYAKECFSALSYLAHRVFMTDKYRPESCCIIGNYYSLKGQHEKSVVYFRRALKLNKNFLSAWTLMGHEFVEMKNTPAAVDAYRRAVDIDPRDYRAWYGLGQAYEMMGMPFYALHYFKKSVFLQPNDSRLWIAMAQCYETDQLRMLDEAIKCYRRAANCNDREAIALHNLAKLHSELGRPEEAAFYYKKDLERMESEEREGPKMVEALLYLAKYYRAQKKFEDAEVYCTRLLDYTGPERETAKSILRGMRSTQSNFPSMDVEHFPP

GmGA2ox-like-nYFP (enzyme)
fold change of the relative BiFC fluorescence intensity in the cytoplasm, UV-B against white light: 3 fold
